In patent US20090253152A1 (OREGON HEALTH AND SCIENCE UNIVERSITY, published 2009):
Ends that are not written are not given here.

Molecular target: T1, insulin-like growth factor I (IGF-I) (human, UniProt P05019 49-118, 125I-labelled in the ligand blots, affinity cross-linking and solution binding assay; unlabelled in BIAcore)
T1 construct: Human is stated only for the BIAcore material (rhIGF-I); also called rhIGF-I
Assay: dot ligand blot: E. coli GST-fusion lysate dotted on nitrocellulose, probed with 125I-IGF-I; anti-GST dot immunoblot as loading control
Method: For dot blots, 2.5 μl of sample were dotted directly onto the nitrocellulose membrane. The membranes were then blocked for 1 h at 21° C. in 4% milk/TBS-T, followed by an overnight incubation at 4° C. with anti-IGFBP-3 monoclonal antibody (Diagnostic Systems Laboratories, Inc., Webster, Tex.), anti-GST polyclonal antibody (Amersham Pharmacia Biotech, Piscataway, N.J.), anti-PY20 monoclonal antibody (Santa Cruz Biotech, Santa Cruz, Calif.), or anti-IRS-1 polyclonal antibody (Upstate, Lake Placid, N.Y.), all at 1:3000 dilutions. Membranes were washed with TBS-T and incubated for 1 h at 21° C. with a 1:3000 dilution of horseradish peroxidase-linked antirabbit or antimouse IgG secondary antibodies (Amersham Pharmacia Biotech, Piscataway, N.J.). Proteins were detected by enhanced chemiluminescence reagents, according to the manufacturer's protocol (NEN Life Science Products, Boston, Mass.).
Lane 1, ⁽¹⁻⁴⁶⁾IGFBP-3; lane 2, ⁽¹⁻⁷⁵⁾IGFBP-3; lane 3, ⁽¹⁻⁸⁰⁾IGFBP-3; lane 4, ⁽¹⁻⁸⁷⁾IGFBP-3; lane 5, full-length IGFBP-3; lane 6, pGEX4T-1 vector alone. The binding of these IGFBP-3 “deletion” fragments to [¹²⁵I]-IGF-I is shown, along with wild-type IGFBP-3 binding, and control vector (pGEX4T-1) to [¹²⁵I]-IGF-I. For each protein sample, the protein extract was directly pipetted onto nitrocellulose paper, incubated in 1% BSA with [¹²⁵I]-IGF-I, and then exposed to film. […]

T1 sequence (P05019 49-118 limits assumed): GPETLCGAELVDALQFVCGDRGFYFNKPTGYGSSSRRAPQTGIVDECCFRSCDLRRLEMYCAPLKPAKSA

B1: (1-46)IGFBP-3 FLAG-tagged fragment, GST-fusion (E. coli) (other, human)
chain: GASSAGLGPVVRCEPCDARALAQCAPPPAVCAELVREPGCGCCLTCDYKDDDDK
modifications: cysteine pairing not given here; also: GST fusion with the vector's linker, linker sequence and fusion end not given here
notes: range 1-46; Tested as crude E. coli cell lysate; not shown: glutathione S-transferase encoded by vector pGEX4T-1, with the vector's linker
- binding result: no binding
